Source: the supplement of paper PMC12042874
± gives the uncertainty stated by the source.

assay: amyloid nucleation score (Sup35N fusion, yeast selection) (log enrichment); library NNK2; higher = more nucleation; inactive = no reads after selection
Method in brief: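 Psi-negative yeast expressed Sup35N fused to peptides of 20 random codons. They were induced 24 hours with 100 μM copper sulfate, grown 7 days at 30°C without adenine and uracil, and their plasmid inserts from input and output were Illumina-sequenced. The nucleation score is the DiMSum log enrichment of output over input reads, centred on the mode score of non-aggregating sequences. Sequences with under 100 input reads were excluded.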

Substance | amyloid nucleation score
LVFHRVTWLTDNMQWKGTPG | 3.2 ± 0.078
LVFKAPRTITSPCCYGSNWS | 0.504 ± 0.36
LVFMAFC | 4.839 ± 0.04
LVGHYSDRDYVEYARRDCAG | 0.252 ± 0.8
LVGVPNYVRMHYARLSLTAL | inactive
LVHSLDFL | -0.389 ± 0.61
LVISM | 0.348 ± 0.46
LVKKWVWLLCCYRISWGRLR | -0.346 ± 0.28
LVKLEKHRLKVVNDYNSFEG | inactive
LVKLEYALSVFRENSGSNLN | 1.07 ± 0.3
LVLAGSYDRCLPSCVVMRKG | 0.461 ± 0.64
LVLLKGYKRSNNGKQCYAGL | 0.365 ± 0.66
LVLPYSGTHAGLRVWCGSSV | 0.696 ± 0.34
LVNFSSLIV | -2.07 ± 1.1
LVQCLLYSLWCQALSQPMYV | -0.753 ± 1
LVRHFIHGSTA | -1.23 ± 0.49
LVRMIYTYSVRSDSVSFKSF | -0.132 ± 0.38
LVSMLVFL | 2.15 ± 0.15
LVTLRKMDPSPRRVIFNVCN | 0.935 ± 0.39
LVVLWK | 6.01 ± 0.061
LVWRDV | 0.729 ± 0.51
LVYESSDYFVNIIEDNLLVS | inactive
LVYTPCLILGDELAVTGVKR | -0.337 ± 0.23
LWAYPLSMLWGKLFMDGMLL | -0.486 ± 0.27
LWCPVHRAYGYAIHSVKGAH | 1.04 ± 0.34

Substance | amyloid nucleation score
LWFLS | 0.393 ± 0.33
LWNWRACARLG | 1.25 ± 0.24
LWREYLVHGSP | 0.329 ± 0.5
LWVVQTVDHTSKSSSVWSSL | 4.16 ± 0.078
LYCDECISWYAHDWLNI | 0.409 ± 0.45
LYCIVQGKSSGIHQRATFCF | inactive
LYDWRWSWSRSATSSFGWLT | 0.296 ± 0.49
LYETSMNDPMRVHHLRCEFI | -0.254 ± 0.56
LYFDVTQ | -0.611 ± 0.32
LYGHSVNMVV | -0.224 ± 0.39
LYGIVITTLSSYCGGFLNSR | inactive
LYGMF | -0.261 ± 0.63
LYIDIRRSCLVCNGMSWRAG | 5.865 ± 0.052
LYIYLNYFNTAVTFYGCVCS | 3.94 ± 0.052
LYKVYVFYNNNVVMVRLALK | inactive
LYLTYKVVHTSTPPVASYCE | 5.855 ± 0.033
LYQMCIRLI | -0.657 ± 0.55
LYQWSGLIKSVLNSGCGKVE | 0.315 ± 0.54
LYRFAMLLRLGARSVNMLGK | -0.573 ± 1.1
LYRFSNST | -0.968 ± 0.29
LYSMSHCWHVQCWEFDSYVG | -0.174 ± 0.23
LYSTRRCHVRELVPLLGARS | 0.362 ± 0.25
LYTRMPMYGHSEKFLVCESS | -0.486 ± 0.27
LYVNLRCRNYYVAVPVGDWD | 4.9 ± 0.068
LYYVMSPWLITSRAWDGSSS | 0.778 ± 0.67

Substance | amyloid nucleation score
MAELLHKYGYKDAVRNIHPY | 0.641 ± 0.62
MAGVTPLELLCGPNQFALMR | 1.95 ± 0.48
MAKIFFPNRQVIPPTRMQRV | 1.12 ± 0.47
MCCGISMVFGDCSQVSVLIR | 8.847 ± 0.047
MCCPRSNFGYPFHVNLDMWG | -0.186 ± 0.55
MCDIVHY | -0.446 ± 0.79
MCEYLWCMGACNQASLTYLS | 5.787 ± 0.032
MCSMCIVLPPVCVLKAKVYT | 3.69 ± 0.081
MCTGVPINGFWVCPYDQSGK | 0.108 ± 0.33
MCWVANNVTNPVEVEYERSL | -0.821 ± 1.1
MDAYRCWAQMYRTYMLMCLV | 0.039 ± 0.27
MDGNDYAVVR | 0.861 ± 0.23
MDKFFFSFTYGGLSQPDQGV | -1.35 ± 1.1
MDLMGCLYYPDT | 1.05 ± 0.35
MDLRWKSSGRKVNLNRLIQR | 4.647 ± 0.036
MDPYYRKICSCDVGVNYRFL | inactive
MDWVQGAFMPRGSGHWHN | -0.327 ± 0.79
MDYWVFMPFQLHRLCCYTPL | -0.303 ± 0.24
MEGVAK | 0.331 ± 0.8
MEKVHV | 1.65 ± 0.48
MENGHCYFCQCTKSH | 2.85 ± 0.1
MEPNYGVRGVMYNFVMPRWM | 7.251 ± 0.047
MFGGLGTDSLA | -0.46 ± 1
MFILGAHGKFGSTTMGVLAC | -1.64 ± 0.62
MFRSVRFVCWSRLIDNRYMQ | -0.18 ± 0.34

Substance | amyloid nucleation score
MFSESE | -0.275 ± 0.35
MFSIYLLSCPLYISMNWSCR | 0.183 ± 1
MFSRIWPSSDL | -0.324 ± 1.1
MFSYTVSVLDLIYKSIWECE | -0.941 ± 0.35
MFWRSYNWDFSCYCNCSRGR | 5.054 ± 0.033
MGFLLRLCTYRCVVVIWGSI | -1.08 ± 0.43
MGLWLDYDTHCYQNVVFKRT | 2.41 ± 0.091
MGRGPESQHFVCCHRRAWL | 1.15 ± 0.3
MGTHKTDGRRQYLVVSSCEV | 0.115 ± 1
MHRSCGEIACTKKVAIEMKD | 1.34 ± 0.18
MHSFHTICLLLMWRESRIAV | 0.45 ± 0.39
MIEKVQFQCLVIICRNGVV | 6.565 ± 0.052
MIERMSNRGMACLFVETRSG | -0.149 ± 0.76
MIFYDAIGWKLGNRGSN | -0.728 ± 0.45
MIGNQNQGVCW | 0.141 ± 0.29
MIGVYDGLRHNVEQGFVWCE | 0.419 ± 0.51
MIQEVLWLVSS | 0.043 ± 0.49
MISRCDWFWSKLKTSL | 2.29 ± 0.06
MIVLIQKGLWGFDLQAVFVP | -0.653 ± 1.1
MIVVCVRLYQGRYGRMPDYE | -0.16 ± 0.37
MKCDIFGGLSDN | 0.698 ± 0.62
MKGFELSLLVMRHSLELYRI | 0.463 ± 0.65
MKRVGKFVGLGGRHVVHSRV | 0.434 ± 0.33
MKTSLYRRGNPRLYREKSRK | 1.01 ± 0.27
MLDLIRLNDVICSQKFH | 0.48 ± 0.64

Substance | amyloid nucleation score
MLDLNQFLCRGFKLTRPYGL | -0.155 ± 0.54
MLECVSALGKLGWFIQPVCL | -0.32 ± 0.55
MLERHKDRTRSGLKRGARET | 0.84 ± 0.46
MLFSNVLLCKLCIFA | 6.96 ± 0.055
MLGHSWHF | inactive
MLPFNRSVPNAAFFIGMIGS | 2.16 ± 0.076
MLSEADNLRRSYRHRIYEFI | -0.874 ± 0.76
MLWVWSLSQTLVRTKVRVLS | 0.024 ± 0.5
MLYVVCFCILVFLFHTNRMR | -0.674 ± 0.32
MLYYNESVINAVVYVKGRCW | -0.012 ± 1.1
MMIPFVMYYRFDGYVKRHTG | -0.512 ± 0.76
MMNCNVLMDKSSCFRYIVWG | 3.77 ± 0.051
MMWLGFYSCKGIGW | 3.991 ± 0.039
MMWLSARMQR | 6.727 ± 0.049
MMYDRIIQFTLYTLI | 3.09 ± 0.057
MNCVLQKLVVVCFQSMAYMR | 0.498 ± 0.27
MNFWILFQNLQHRCVQVTGR | 3.64 ± 0.068
MNSIKMEGVRYNNPNDYTFC | -1.14 ± 1.1
MNSSQGTDAKRMLYHRCSET | -0.29 ± 0.56
MNVYMGFTKVLSAVPRLLYG | -0.408 ± 0.56
MPVHSQSRMVRRRVDKTI | -0.632 ± 0.76
MQAMRRGQKYKSGRVIYVRG | -0.554 ± 0.63
MQFLFK | -1.33 ± 1.1
MQIIGWILWGVLQAELHYRS | -1.01 ± 0.53
MQIKFKS | -0.38 ± 0.56

Substance | amyloid nucleation score
MQLCYKYRTVVTSSLDPEYM | -0.066 ± 0.74
MQMLWYTMFFNSSRLVC | -1.58 ± 0.61
MQWETSGVLCWSKQFGGDWV | 0.864 ± 0.23
MRLLVHSWDIESSFNVRMGQ | 3.42 ± 0.058
MRPAPIINN | 1.14 ± 0.44
MRSYRLYLIPFHFLGWLINS | inactive
MRYSPWQGTHILWVLNTTSY | 1.82 ± 0.32
MSFWMSTTINRN | 1.67 ± 0.1
MSFYFNFIYYFYSYFTFEWF | inactive
MSHTVITFFVCIVYSFSHCL | 1.86 ± 0.3
MSIEKCICLICSINMEVVGF | 6.821 ± 0.059
MSITSC | inactive
MSLIKTHGKLTVGDVDFPKF | -0.753 ± 0.44
MSLSLQKYFLWRPGRAPVVR | -0.03 ± 0.63
MSLSNDHSGAVWRRAFGYSE | 0.51 ± 0.51
MSRIRTTTMNSGFGGYTPVL | 3.06 ± 0.056
MSRKWGGSKRCNGCPPKLVQ | 1.08 ± 0.22
MSSASQILAHDYQNSYG | -0.383 ± 0.32
MSSMCNLFRYMFKLYVRSWV | -0.681 ± 0.3
MSVMWLASLISFQLFMAAQL | 0.062 ± 0.79
MSVPFLWFTYHFSRPVLSVT | 0.389 ± 0.27
MSWAVRDSIHRNYLKFVNRR | -0.02 ± 1.1
MSYILFCLPSNARCFLP | inactive
MTALATRRCHPLYISA | -0.661 ± 0.42
MTKCTDHVRVDDVCLHIRGS | -0.255 ± 1.1

Substance | amyloid nucleation score
MTKHV | 0.241 ± 0.8
MTRTFYCFQGRHLDSWDQGE | 0.371 ± 0.8
MTSALGWQIYVYLSGAEYET | 0.31 ± 0.5
MTSENNWPNYTGLAPTPPAA | 1.32 ± 0.18
MTSLGVPNAYCEGNGAWYHR | 0.321 ± 0.21
MTVNSLFHRLNKLRGILPDR | -0.902 ± 0.48
MTVYLLIVLKFCFRRMSPEA | -0.255 ± 0.49
MTWARRRSINIYDRHLRMAG | -0.388 ± 1
MVAYFPMSPG | -0.076 ± 0.24
MVCKLTFRRRCPMNRSRHQV | 0.469 ± 0.43
MVLEGHKCYGLRNGPNNARI | 0.451 ± 0.49
MVLIENSCKMSSYQE | -0.405 ± 0.35
MVNCDYGPLLS | inactive
MVSYKVLEYYVSLITTHLLF | -0.36 ± 0.49
MVVGFRLPERLTYWRGGHMS | 5.324 ± 0.047
MVVYRVPMAQLLPS | inactive
MWLLWAKI | inactive
MWLSPRVVVFCRLIFHLLVG | -0.567 ± 1.1
MWMEVTRPPTGHFRIRGGQA | inactive
